Columns and labels:
[1] = target: T1, ADI-70327; assay: SPR Carterra, yeast anti-ID
T1 construct: anti-CD3 antibody made in CHO cells, captured by anti-human Fc
Method: (§1) Kinetic analysis was conducted at 25° C. in an HBSTE running buffer system (Carterra Cat #3630) using a Carterra LSA (Carterra USA, Salt Lake City, UT). The sample compartment was maintained at 20° C. for the duration of each experiment.
(§2) For antibody capture experiments, a goat anti-human Fc antibody (Jackson ImmunoResearch) was covalently coupled to an HC30M sensor chip surface via standard amine coupling (1:1 EDC:NHS) and then blocked with ethanolamine (1.0 M, pH 8.5). Covalent coupling steps were performed in 25 mM MES buffer (Carterra, Cat #3625) plus 0.05% Tween20. The anti-CD3 antibodies (100 nM in running buffer) were flowed over discrete regions of interest on the chip surface for 5 minutes. […] Dissociation of the anti-idiotype antibodies was monitored for 300s. Several blank buffer samples were injected over the entire chip surface at the start of each non-regenerative kinetic cycle. The preceding blank buffer injection was used for blank surface subtraction. At the end of each non-regenerative kinetic cycle, all surfaces were regenerated via two 30s injections of 10 mM glycine, pH 1.7.
(§3) For data processing and fitting, sensorgrams were double reference subtracted with a baseline drift correction of 4 RU. Sensorgrams were y-aligned and baseline corrected, filtered and cropped to include only the association and dissociation steps. Data was fitted to a 1:1 binding model using Carterra Kinetics Data Analysis software version 1.7.1.3055.

[2] = target: T2, ADI-70330; assay: SPR Carterra, yeast anti-ID
T2 construct: anti-CD3 antibody made in CHO cells, captured by anti-human Fc
Method: as §1, §2, §3

[3] = target: T3, ADI-67445; assay: SPR Carterra, yeast anti-ID
T3 construct: anti-CD3 antibody made in CHO cells, captured by anti-human Fc
Method: as §1, §2, §3

[4] = target: T4, ADI-26915; assay: SPR Carterra, yeast anti-ID
T4 construct: anti-CD3 antibody made in CHO cells, captured by anti-human Fc
Method: as §1, §2, §3

[5] = target: T5, CTL-62223; assay: SPR Carterra, yeast anti-ID
T5 construct: also called mosunetuzumab
Method: as §1, §2, §3

[6] = target: T6, CTL-62227; assay: SPR Carterra, yeast anti-ID
T6 construct: also called odronextamab
Method: as §1, §2, §3

[7] = target: T7, CTL-62228; assay: SPR Carterra, yeast anti-ID
T7 construct: also called glofitamab
Method: as §1, §2, §3

[8] = target: T8, CTL-62240; assay: SPR Carterra, yeast anti-ID
T8 construct: also called ONO-4685
Method: as §1, §2, §3

[9] = target: T9, ADI-50024; assay: SPR Carterra avidity, yeast anti-ID
T9 construct: anti-CD3 antibody made in CHO cells, captured by anti-human Fc
Method: as §1, §2, §3

[10] = target: T10, ADI-70326; assay: SPR Carterra avidity, yeast anti-ID
T10 construct: anti-CD3 antibody made in CHO cells, captured by anti-human Fc
Method: as §1, §2, §3

[11] = target: T11, ADI-67450; assay: SPR Carterra avidity, yeast anti-ID
T11 construct: anti-CD3 antibody made in CHO cells, captured by anti-human Fc
Method: as §1, §2, §3

[12] = target: T12, ADI-67447; assay: SPR Carterra avidity, yeast anti-ID
T12 construct: anti-CD3 antibody made in CHO cells, captured by anti-human Fc
Method: as §1, §2, §3

[13] = target: T13, ADI-26909; assay: SPR Carterra avidity, yeast anti-ID
T13 construct: anti-CD3 antibody made in CHO cells, captured by anti-human Fc
Method: as §1, §2, §3

[14] = target: T14, ADI-26921 IgG; assay: SPR Carterra avidity, yeast anti-ID
T14 construct: anti-CD3 IgG
Method: as §1, §2, §3

[15] = target: T15, ADI-26912; assay: SPR Carterra avidity, yeast anti-ID
T15 construct: anti-CD3 antibody made in CHO cells, captured by anti-human Fc
Method: as §1, §2, §3

[16] = target: T16, ADI-48576; assay: SPR Carterra avidity, yeast anti-ID
T16 construct: pH-dependent anti-CD3 antibody made in CHO cells
Method: as §1, §2, §3

[17] = target: T17, ADI-48587; assay: SPR Carterra avidity, yeast anti-ID
T17 construct: pH-dependent anti-CD3 antibody made in CHO cells
Method: as §1, §2, §3

[18] = target: T18, ADI-48592; assay: SPR Carterra avidity, yeast anti-ID
T18 construct: pH-dependent anti-CD3 antibody made in CHO cells
Method: as §1, §2, §3

[19] = target: T19, ADI-48650; assay: SPR Carterra avidity, yeast anti-ID
T19 construct: pH-dependent anti-CD3 antibody made in CHO cells
Method: as §1, §2, §3

[20] = target: T20, ADI-74965; assay: SPR Carterra avidity, yeast anti-ID
T20 construct: pH-dependent anti-CD3 antibody made in CHO cells
Method: as §1, §2, §3

[21] = target: T21, ADI-74966; assay: SPR Carterra avidity, yeast anti-ID
T21 construct: pH-dependent anti-CD3 antibody made in CHO cells
Method: as §1, §2, §3

[22] = target: T22, ADI-74967; assay: SPR Carterra avidity, yeast anti-ID
T22 construct: pH-dependent anti-CD3 antibody made in CHO cells
Method: as §1, §2, §3

[23] = target: T23, ADI-74968; assay: SPR Carterra avidity, yeast anti-ID
T23 construct: pH-dependent anti-CD3 antibody made in CHO cells
Method: as §1, §2, §3

[24] = target: T24, ADI-76358; assay: SPR Carterra avidity, yeast anti-ID
T24 construct: anti-CD3 antibody made in CHO cells, captured by anti-human Fc
Method: as §1, §2, §3

[25] = target: T25, ADI-76359; assay: SPR Carterra avidity, yeast anti-ID
T25 construct: anti-CD3 antibody made in CHO cells, captured by anti-human Fc
Method: as §1, §2, §3

[26] = target: T26, ADI-76360; assay: SPR Carterra avidity, yeast anti-ID
T26 construct: anti-CD3 antibody made in CHO cells, captured by anti-human Fc
Method: as §1, §2, §3

[27] = target: T27, ADI-76361; assay: SPR Carterra avidity, yeast anti-ID
T27 construct: anti-CD3 antibody made in CHO cells, captured by anti-human Fc
Method: as §1, §2, §3

[28] = target: T28, ADI-76362; assay: SPR Carterra avidity, yeast anti-ID
T28 construct: anti-CD3 antibody made in CHO cells, captured by anti-human Fc
Method: as §1, §2, §3

[29] = target: T29, ADI-22523 Fab; assay: BLI; tip anti-ID IgG, solution ADI-22523 Fab
T29 construct: anti-CD3 Fab by papain digestion of the IgG
Method: (§4) ForteBio affinity measurements were performed generally as previously described (Estep et al., MAbs. 2013 5(2):270-8). Briefly, ForteBio affinity measurements were performed by loading antibody IgG or Fabs on-line onto AHC sensors. Sensors were equilibrated off-line in assay buffer for 30 minutes and then monitored on-line for 60 seconds for baseline establishment. For avid binding measurement, sensors with loaded antibodies were exposed to IgG or Fab solutions for 3 minutes, afterwards they were transferred to assay buffer for 3 minutes for off-rate measurement. Kinetics data were fit using a 1:1 binding model in the data analysis software provided by ForteBio to obtain equilibrium dissociation constant (KD=koff/kₒₙ) values. In each column, tip-immobilized antibodies are listed first and solution antibodies second.

[30] = target: T30, ADI-22523 IgG; assay: BLI; tip anti-ID IgG, solution ADI-22523 IgG
T30 construct: anti-CD3 IgG
Method: as §4

[31] = target: T31, ADI-26906 IgG; assay: SPR Carterra avidity, yeast anti-ID, *koff limit
T31 construct: anti-CD3 IgG
Method: as §1, §2, §3

[32] = target: T32, ADI-26913 IgG; assay: SPR Carterra avidity, yeast anti-ID, *koff limit
T32 construct: anti-CD3 IgG
Method: as §1, §2, §3

[33] = target: T33, ADI-26919; assay: SPR Carterra avidity, yeast anti-ID, *koff limit
T33 construct: anti-CD3 antibody made in CHO cells, captured by anti-human Fc
Method: as §1, §2, §3

[34] = target: T34, ADI-26920 IgG; assay: SPR Carterra avidity, yeast anti-ID, *koff limit
T34 construct: anti-CD3 IgG
Method: as §1, §2, §3

[35] = target: T35, ADI-26916 IgG; assay: SPR Carterra avidity, yeast anti-ID, *koff limit
T35 construct: anti-CD3 IgG
Method: as §1, §2, §3

[36] = target: T36, ADI-26924; assay: SPR Carterra avidity, yeast anti-ID, *koff limit
T36 construct: anti-CD3 antibody made in CHO cells, captured by anti-human Fc
Method: as §1, §2, §3

[37] = target: T37, ADI-26943; assay: SPR Carterra avidity, yeast anti-ID, *koff limit
T37 construct: anti-CD3 antibody made in CHO cells, captured by anti-human Fc
Method: as §1, §2, §3

[38] = target: T38, ADI-76357; assay: SPR Carterra avidity, yeast anti-ID, *koff limit
T38 construct: anti-CD3 antibody made in CHO cells, captured by anti-human Fc
Method: as §1, §2, §3

T38 sequence (VH, as listed by the source, chain 1 of 2): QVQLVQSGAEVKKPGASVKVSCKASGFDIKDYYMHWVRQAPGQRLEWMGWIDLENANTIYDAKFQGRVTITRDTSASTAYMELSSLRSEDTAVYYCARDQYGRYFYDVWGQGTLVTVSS
T38 sequence (VL, as listed by the source, chain 2 of 2): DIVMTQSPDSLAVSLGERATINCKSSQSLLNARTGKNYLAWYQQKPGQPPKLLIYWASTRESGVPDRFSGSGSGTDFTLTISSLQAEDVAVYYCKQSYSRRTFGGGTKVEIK
T32 sequence (VH, as listed by the source limits assumed, chain 1 of 2): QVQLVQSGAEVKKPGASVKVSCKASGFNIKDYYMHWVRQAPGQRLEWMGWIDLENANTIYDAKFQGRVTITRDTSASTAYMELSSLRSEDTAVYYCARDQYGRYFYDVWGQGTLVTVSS
T5 sequence (VH, as listed by the source, chain 1 of 2): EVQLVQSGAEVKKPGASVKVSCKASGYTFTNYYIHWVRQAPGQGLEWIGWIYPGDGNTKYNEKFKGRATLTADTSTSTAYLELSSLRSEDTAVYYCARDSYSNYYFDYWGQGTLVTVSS
T5 sequence (VL, as listed by the source, chain 2 of 2): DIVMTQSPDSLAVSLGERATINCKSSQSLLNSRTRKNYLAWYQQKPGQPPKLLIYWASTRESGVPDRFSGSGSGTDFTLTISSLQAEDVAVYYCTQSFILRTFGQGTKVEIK
T1 sequence (VH, as listed by the source limits assumed, chain 1 of 2): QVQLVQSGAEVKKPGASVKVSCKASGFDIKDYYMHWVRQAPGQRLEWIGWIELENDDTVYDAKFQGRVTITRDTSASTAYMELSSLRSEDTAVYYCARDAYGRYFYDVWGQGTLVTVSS
T1 sequence (VL, as listed by the source limits assumed, chain 2 of 2): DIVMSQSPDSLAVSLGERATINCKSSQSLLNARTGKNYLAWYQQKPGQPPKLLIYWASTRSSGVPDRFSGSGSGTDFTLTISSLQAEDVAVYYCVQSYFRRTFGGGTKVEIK
T35 sequence (VH, as listed by the source, chain 1 of 2): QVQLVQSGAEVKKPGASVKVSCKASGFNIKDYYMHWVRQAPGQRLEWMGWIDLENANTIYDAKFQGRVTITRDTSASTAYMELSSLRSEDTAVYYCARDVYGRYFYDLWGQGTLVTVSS
T2 sequence (VH, as listed by the source limits assumed, chain 1 of 2): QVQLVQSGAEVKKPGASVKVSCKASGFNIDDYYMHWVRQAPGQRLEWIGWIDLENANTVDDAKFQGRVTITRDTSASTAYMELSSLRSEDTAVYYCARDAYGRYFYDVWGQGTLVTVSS
T6 sequence (VH, as listed by the source, chain 1 of 2): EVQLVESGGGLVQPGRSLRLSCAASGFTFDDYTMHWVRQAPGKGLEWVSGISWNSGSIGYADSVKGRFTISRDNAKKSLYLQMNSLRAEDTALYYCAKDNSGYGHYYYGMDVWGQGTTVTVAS
T6 sequence (VL, as listed by the source, chain 2 of 2): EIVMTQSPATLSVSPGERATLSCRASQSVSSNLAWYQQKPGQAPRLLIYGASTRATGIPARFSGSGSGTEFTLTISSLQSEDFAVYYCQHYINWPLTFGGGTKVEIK
T27 sequence (VH, as listed by the source, chain 1 of 2): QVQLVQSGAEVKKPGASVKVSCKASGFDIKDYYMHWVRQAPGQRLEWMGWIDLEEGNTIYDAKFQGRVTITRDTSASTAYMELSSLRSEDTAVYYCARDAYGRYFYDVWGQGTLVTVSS
T27 sequence (VL, as listed by the source, chain 2 of 2): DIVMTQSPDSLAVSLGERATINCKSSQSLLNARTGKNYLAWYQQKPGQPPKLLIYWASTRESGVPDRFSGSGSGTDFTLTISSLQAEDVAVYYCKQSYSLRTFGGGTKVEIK
T3 sequence (VH, as listed by the source limits assumed, chain 1 of 2): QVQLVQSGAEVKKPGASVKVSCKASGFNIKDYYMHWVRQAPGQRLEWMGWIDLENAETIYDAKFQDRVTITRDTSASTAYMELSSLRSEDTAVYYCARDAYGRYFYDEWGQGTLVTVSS
T12 sequence (VH, as listed by the source limits assumed, chain 1 of 2): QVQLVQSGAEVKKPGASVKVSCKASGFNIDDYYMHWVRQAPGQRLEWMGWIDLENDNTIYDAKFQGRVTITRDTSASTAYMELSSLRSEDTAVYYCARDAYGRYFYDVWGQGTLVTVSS
T26 sequence (VH, as listed by the source, chain 1 of 2): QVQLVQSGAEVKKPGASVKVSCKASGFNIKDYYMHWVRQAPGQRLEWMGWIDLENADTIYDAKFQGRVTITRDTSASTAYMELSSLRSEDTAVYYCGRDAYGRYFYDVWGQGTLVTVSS
T19 sequence (VH, as listed by the source, chain 1 of 2): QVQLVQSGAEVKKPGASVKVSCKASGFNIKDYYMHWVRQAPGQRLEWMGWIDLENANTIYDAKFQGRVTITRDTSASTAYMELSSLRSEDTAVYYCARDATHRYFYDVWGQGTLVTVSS
T19 sequence (VL, as listed by the source, chain 2 of 2): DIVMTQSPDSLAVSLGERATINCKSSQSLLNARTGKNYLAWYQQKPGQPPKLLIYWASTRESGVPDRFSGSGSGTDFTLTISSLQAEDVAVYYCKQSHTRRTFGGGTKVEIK
T33 sequence (VH, as listed by the source limits assumed, chain 1 of 2): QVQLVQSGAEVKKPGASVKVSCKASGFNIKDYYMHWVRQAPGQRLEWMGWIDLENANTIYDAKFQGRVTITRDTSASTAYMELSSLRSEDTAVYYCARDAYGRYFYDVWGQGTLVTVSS
T10 sequence (VH, as listed by the source limits assumed, chain 1 of 2): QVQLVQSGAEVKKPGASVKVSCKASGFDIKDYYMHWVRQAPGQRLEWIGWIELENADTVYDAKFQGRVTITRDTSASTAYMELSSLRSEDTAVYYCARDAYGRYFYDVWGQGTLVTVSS
T25 sequence (VH, as listed by the source, chain 1 of 2): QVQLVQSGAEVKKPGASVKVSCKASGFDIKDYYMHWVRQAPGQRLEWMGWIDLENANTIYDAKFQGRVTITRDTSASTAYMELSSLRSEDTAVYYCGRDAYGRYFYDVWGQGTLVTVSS
T16 sequence (VH, as listed by the source, chain 1 of 2): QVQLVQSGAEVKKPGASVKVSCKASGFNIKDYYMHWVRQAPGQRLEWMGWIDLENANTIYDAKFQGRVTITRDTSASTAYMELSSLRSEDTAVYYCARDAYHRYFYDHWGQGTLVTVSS
T16 sequence (VL, as listed by the source, chain 2 of 2): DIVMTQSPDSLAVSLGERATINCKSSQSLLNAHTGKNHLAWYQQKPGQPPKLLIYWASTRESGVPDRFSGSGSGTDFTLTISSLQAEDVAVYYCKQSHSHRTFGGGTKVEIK
T18 sequence (VH, as listed by the source, chain 1 of 2): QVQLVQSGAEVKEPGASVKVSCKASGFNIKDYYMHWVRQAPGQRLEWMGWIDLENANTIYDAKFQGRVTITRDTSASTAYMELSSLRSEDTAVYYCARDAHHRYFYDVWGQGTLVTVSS
T18 sequence (VL, as listed by the source, chain 2 of 2): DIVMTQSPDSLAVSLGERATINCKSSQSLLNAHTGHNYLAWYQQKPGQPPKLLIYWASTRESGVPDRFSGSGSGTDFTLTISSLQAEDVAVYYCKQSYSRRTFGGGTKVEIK

B1: ADI-34141 (antibody, V domains shown)
VH: EVQLLESGGGLVQPGGSLRLSCAASGFTFSSYAMSWVRQAPGKGLEWVSTISGSGGSTYYADSVKGRFTISRDNSKNTLYLQMNSLRAEDTAVYYCARLGGRRGSGSSYYYYYGMDVWGQGTTVTVSS
VL: not shown
notes: anti-ID IgG
binding result [1]: no binding (tested: up to 200 nM)
binding result [2]: no binding (tested: up to 200 nM)
binding result [3]: no binding (tested: up to 200 nM)
binding result [4]: no binding (tested: up to 200 nM)
binding result [5]: no binding (tested: up to 200 nM)
binding result [6]: no binding (tested: up to 200 nM)
binding result [7]: no binding (tested: up to 200 nM)
binding result [8]: no binding (tested: up to 200 nM)
binding result [9]: binds
binding result [10]: binds
binding result [11]: binds
Kd [12]: 17 nM
binding result [13]: binds
binding result [14]: binds
binding result [15]: binds
Kd [16]: 22 nM
binding result [17]: binds
binding result [18]: binds
binding result [19]: binds
Kd [20]: 33 nM
Kd [21]: 51 nM
Kd [22]: 32 nM
Kd [23]: 63 nM
binding result [24]: binds
Kd [25]: 14 nM
Kd [26]: 54 nM
binding result [27]: binds
binding result [28]: binds
Kd [29]: 16.5 nM
Kd [30]: 2.83 nM
Kd [31]: 13 nM
Kd [32]: 7 nM
Kd [33]: 10 nM
Kd [34]: 7.1 nM
Kd [35]: 10 nM
Kd [36]: 5.4 nM
Kd [37]: 5.7 nM
Kd [38]: 7.6 nM
